Source: the supplement of paper PMC7125110
± gives the standard error. Variants at the floor of the assay were thinned out.

B1: glmS ribozyme (parent)
chain: AUAAAAGCGCCAGAACUACAGAAAUGUAGUUGACGAGGAGGAGGUUUAUCGAAUUUUCGGCGGAUGCCUCCAAA

Tests used:
Conditions in all cases: with glucosamine-6-phosphate
glucosamine-6-phosphate [1] = variants of: B1; assay: self-cleavage kobs at 640 uM GlcN6P; higher = faster cleavage; RNA array
How it was run: (§1)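 kcat and KM were obtained from weighted Michaelis–Menten fits across concentrations of kobs values. Those came from one- or two-exponential decay fits to per-tile medians normalised to baseline and to non-cleaving reference variants. The variants were barcoded ribozymes transcribed in situ by E. coli RNA polymerase on sequenced MiSeq chips and tracked through a hybridised Cy3 probe at 37 °C, with 40 μM to 10 mM glucosamine-6-phosphate in HEPES/KCl/Mg(OAc)2 buffer flowed in.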

glucosamine-6-phosphate [2] = variants of: B1; assay: self-cleavage kobs at 2500 uM GlcN6P; higher = faster cleavage; RNA array
How it was run: as §1

glucosamine-6-phosphate [3] = variants of: B1; assay: self-cleavage kobs at 10000 uM GlcN6P; higher = faster cleavage; RNA array
How it was run: as §1

Row | Variant | self-cleavage kobs at 640 uM GlcN6P (glucosamine-6-phosphate [1]) | self-cleavage kobs at 2500 uM GlcN6P (glucosamine-6-phosphate [2]) | self-cleavage kobs at 10000 uM GlcN6P (glucosamine-6-phosphate [3])
1 | C10G A14C G44C G51C | < 1e-05 s⁻¹ |  | 
2 | C11G U49A C71G | 8.96e-05 ± 3.1e-05 s⁻¹ |  | 
3 | G13A G35C G51U | < 1e-05 s⁻¹ |  | 
4 | C11A G35U C71G | < 1e-05 s⁻¹ | < 1e-05 s⁻¹ | 
5 | A14C U49G C70G | 0.000526 ± 0.00023 s⁻¹ |  | 
6 | A12G A14G U57A C68A U69G | 0.000246 ± 8e-05 s⁻¹ | 7.01e-05 ± 3.5e-05 s⁻¹ | 
7 | C11U U54G G59A | 0.00194 ± 0.00054 s⁻¹ | 0.00627 ± 0.002 s⁻¹ | 
8 | G13C G43A U49G A52G | < 1e-05 s⁻¹ | < 1e-05 s⁻¹ | 
9 | A12C G60C C67U | < 1e-05 s⁻¹ |  | 
10 | C11G U49C C68G U69C | < 1e-05 s⁻¹ |  | 
11 | G13A C61U | < 1e-05 s⁻¹ | < 1e-05 s⁻¹ | < 1e-05 s⁻¹
12 | C10G G66U C68G C71A | 8.79e-05 ± 3.1e-05 s⁻¹ |  | 
13 | G13A G44U | < 1e-05 s⁻¹ | < 1e-05 s⁻¹ | 
14 | C10U A33U U56C C68A | < 1e-05 s⁻¹ |  | 
15 | C11G A39U U45C U49A C50U G62C U65G | < 1e-05 s⁻¹ |  | 
16 | G13U U31C G43C | < 1e-05 s⁻¹ | < 1e-05 s⁻¹ | < 1e-05 s⁻¹
17 | C11A A15G G32C A33U | < 1e-05 s⁻¹ |  | 
18 | A14C U31G G32A C70G | 6.55e-05 ± 1.4e-05 s⁻¹ | 8.05e-05 ± 2e-05 s⁻¹ | 
19 | C11G G29U A42C | < 1e-05 s⁻¹ | < 1e-05 s⁻¹ | 
20 | A14C A42U G63A | < 1e-05 s⁻¹ |  | 
21 | C11U U31C G35C A36U | < 1e-05 s⁻¹ | < 1e-05 s⁻¹ | 
22 | C11G C70A | 3.62e-05 ± 1.5e-05 s⁻¹ |  | 
23 | C10A G38A G51U C70G | 5.43e-05 ± 1.7e-05 s⁻¹ |  | 

Row | Variant | self-cleavage kobs at 640 uM GlcN6P (glucosamine-6-phosphate [1]) | self-cleavage kobs at 2500 uM GlcN6P (glucosamine-6-phosphate [2]) | self-cleavage kobs at 10000 uM GlcN6P (glucosamine-6-phosphate [3])
24 | C10U C16G U31G A33C C70G | < 1e-05 s⁻¹ |  | 
25 | A12G U31A | 5.56e-05 ± 9.9e-06 s⁻¹ | 7.25e-05 ± 1.1e-05 s⁻¹ | 0.000227 ± 2.4e-05 s⁻¹
26 | G13C G59A | < 1e-05 s⁻¹ |  | < 1e-05 s⁻¹
27 | C10U C11G G29U U30G G37C | < 1e-05 s⁻¹ |  | 
28 | C10U U49G C58A | < 1e-05 s⁻¹ |  | 
29 | A12U U56C C71A | 5.04e-05 ± 1.6e-05 s⁻¹ | 0.00012 ± 4e-05 s⁻¹ | 
30 | A12C G38A A52U | < 1e-05 s⁻¹ |  | 
31 | G13U G32A U46A | 4.17e-05 ± 1.9e-05 s⁻¹ | 8.03e-05 ± 2.3e-05 s⁻¹ | 
32 | G13U A42C A48U A53C G60C | < 1e-05 s⁻¹ | < 1e-05 s⁻¹ | 
33 | C11U C16U A64U C71G | 0.0021 ± 0.00087 s⁻¹ |  | 
34 | A14C G40U U56G U65A C71U | 0.000351 ± 6.7e-05 s⁻¹ | 0.00117 ± 0.00023 s⁻¹ | 
35 | G13A A39G A52C | < 1e-05 s⁻¹ |  | 
36 | A12C A33G G37U | < 1e-05 s⁻¹ | < 1e-05 s⁻¹ | 
37 | G13U G51U U55A | < 1e-05 s⁻¹ |  | 
38 | C10A G35C U55C | < 1e-05 s⁻¹ | < 1e-05 s⁻¹ | 
39 | C10A G35A A42U U57G | < 1e-05 s⁻¹ |  | 
40 | C10A G44A G59U | < 1e-05 s⁻¹ |  | 
41 | A14G A15C U31C G40C U54A | 4.07e-05 ± 1e-05 s⁻¹ | 0.000142 ± 3.5e-05 s⁻¹ | 5.3e-05 ± 1.6e-05 s⁻¹
42 | A12C C34G G40U | < 1e-05 s⁻¹ | < 1e-05 s⁻¹ | 
43 | A14C C16G G29U | 0.000294 ± 5.1e-05 s⁻¹ | 0.000837 ± 0.00017 s⁻¹ | 
44 | C10G C11U U45G A48U C58U | < 1e-05 s⁻¹ | < 1e-05 s⁻¹ | 
45 | A12C C16A A33U | < 1e-05 s⁻¹ |  | 
46 | A14C A64U C67U | < 1e-05 s⁻¹ |  | 

Row | Variant | self-cleavage kobs at 640 uM GlcN6P (glucosamine-6-phosphate [1]) | self-cleavage kobs at 2500 uM GlcN6P (glucosamine-6-phosphate [2]) | self-cleavage kobs at 10000 uM GlcN6P (glucosamine-6-phosphate [3])
47 | C11G A15C U30G A52U | < 1e-05 s⁻¹ |  | 
48 | C10G U55A U57A | < 1e-05 s⁻¹ |  | 
49 | C11A G40C C50U | < 1e-05 s⁻¹ | < 1e-05 s⁻¹ | 
50 | C11G G37C C68U | 9.13e-05 ± 3.1e-05 s⁻¹ |  | 
51 | C11U G62U | < 1e-05 s⁻¹ |  | < 1e-05 s⁻¹
52 | C11A C16U A42U | < 1e-05 s⁻¹ |  | 
53 | A12G A52G G62U | < 1e-05 s⁻¹ | < 1e-05 s⁻¹ | 
54 | C10U A12U C50U C70U | 0.000161 ± 6.4e-05 s⁻¹ |  | 
55 | C10G C68G C70U | 9.88e-05 ± 3.1e-05 s⁻¹ |  | 
56 | C11A G35C C50U C58U | < 1e-05 s⁻¹ | < 1e-05 s⁻¹ | 
57 | A14C C50U U54A | < 1e-05 s⁻¹ | < 1e-05 s⁻¹ | 
58 | G13U C58A U69A | 6.33e-05 ± 2e-05 s⁻¹ |  | 
59 | A12C U31A U57A | 4.6e-05 ± 2.3e-05 s⁻¹ | 4.93e-05 ± 1.6e-05 s⁻¹ | 
60 | A12U A39G U47G U54A U69A | 9.73e-05 ± 2e-05 s⁻¹ | 8.59e-05 ± 2.7e-05 s⁻¹ | 
61 | A14G A15G U31G U45G C61G | < 1e-05 s⁻¹ | < 1e-05 s⁻¹ | 
62 | C10G A33U G35C G41U U54C C70U | < 1e-05 s⁻¹ | < 1e-05 s⁻¹ | 
63 | C11A A12U U47A | 0.000122 ± 2.6e-05 s⁻¹ |  | 
64 | A12C G13A A14G C16A U17C A18U A39G C50U A52G | < 1e-05 s⁻¹ |  | 
65 | C11A A14U A15G G35C U45A G60U | < 1e-05 s⁻¹ |  | 
66 | C10G A36G U45G U49A G66A C71U | < 1e-05 s⁻¹ | < 1e-05 s⁻¹ | 
67 | C11U G32U A33C | < 1e-05 s⁻¹ | < 1e-05 s⁻¹ | 
68 | C11G G44A U55A | < 1e-05 s⁻¹ | < 1e-05 s⁻¹ | 
